This data set concerns Escherichia coli TOP10. The experiment in a line: shrunken log2 fold change of peptide-encoding DNA abundance (4.5 h post-induction vs induction); higher = less antimicrobial activity (less host growth inhibition). The settings on record: time post-induction: 4.5 h; library: site-saturation at positions 5, 18, 19, 20.

The source of these data is the supplement of paper PMC9112550, “Optimization of the antimicrobial peptide Bac7 by deep mutational scanning” (BMC Biology, 2022).
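Further: peptides expressed intracellularly from a pBAD plasmid library in pooled LB shake-flask culture, induced with 0.3% L-arabinose, DNA abundance read by NGS, three biological replicates, DESeq2 with apeglm shrinkage.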

In the case of RRIRHRPPRLPRPRPRPDRPPRP, the “shrunken log2 fold change” value was -0.184.
Regarding RRIRSRPPRLPRPRPRPSAIPRP, the “shrunken log2 fold change” value was 0.0168.
As to RRIRARPPRLPRPRPRPHWKPRP, the “shrunken log2 fold change” value is -0.00664.
For RRIRERPPRLPRPRPRPKKHPRP, the “shrunken log2 fold change” value was -0.55.
Under RRIRTRPPRLPRPRPRPDWLPRP stands 0.514; under RRIRERPPRLPRPRPRPIDMPRP, -0.123.
For the sequence RRIRARPPRLPRPRPRPKMRPRP, the “shrunken log2 fold change” value amounted to 1.64.
As for RRIRMRPPRLPRPRPRPCCVPRP, the “shrunken log2 fold change” value worked out at 0.166.
With RRIRQRPPRLPRPRPRPLQFPRP, the “shrunken log2 fold change” value is -0.168.
For the sequence RRIRFRPPRLPRPRPRPLRMPRP, the “shrunken log2 fold change” value came out at 0.0542.
For RRIRIRPPRLPRPRPRPDEGPRP, the “shrunken log2 fold change” value was -0.22.
Under RRIRRRPPRLPRPRPRPWDQPRP stands 0.0792.
As to RRIRNRPPRLPRPRPRPFGNPRP, the “shrunken log2 fold change” value was 0.0247.
Consider RRIRKRPPRLPRPRPRPCHQPRP, for which the “shrunken log2 fold change” value was determined as 0.124.
With RRIRTRPPRLPRPRPRPYTVPRP, the “shrunken log2 fold change” value is -0.0341.
RRIRTRPPRLPRPRPRPLVDPRP: the “shrunken log2 fold change” value is -0.143.
With RRIRFRPPRLPRPRPRPAMIPRP, the “shrunken log2 fold change” value is -0.397.
On to RRIRNRPPRLPRPRPRPEFYPRP, for which the “shrunken log2 fold change” value was -0.243.
As for RRIRERPPRLPRPRPRPVCSPRP, the “shrunken log2 fold change” value is -0.239.
As for RRIRGRPPRLPRPRPRPLWFPRP, the “shrunken log2 fold change” value was determined as 0.183.
With RRIRNRPPRLPRPRPRPGLWPRP, the “shrunken log2 fold change” value worked out at 0.737.
As for RRIRRRPPRLPRPRPRPVMTPRP, the “shrunken log2 fold change” value was found to be 0.573.
With RRIRKRPPRLPRPRPRPKIMPRP, the “shrunken log2 fold change” value came to 0.193.
Take RRIRERPPRLPRPRPRPACNPRP: the “shrunken log2 fold change” value is -0.102.
As for RRIRARPPRLPRPRPRPPGSPRP, the “shrunken log2 fold change” value was 0.759.
For RRIRVRPPRLPRPRPRPCGDPRP, the “shrunken log2 fold change” value was -0.18.
Under RRIRGRPPRLPRPRPRPENMPRP stands 0.325; under RRIRARPPRLPRPRPRPSTRPRP, 0.23.
For the sequence RRIRARPPRLPRPRPRPEHDPRP, the “shrunken log2 fold change” value is -0.0905.
RRIRIRPPRLPRPRPRPQKRPRP: the “shrunken log2 fold change” value is -0.143.
In the case of RRIRARPPRLPRPRPRPIFMPRP, the “shrunken log2 fold change” value is 0.104.
Take RRIRLRPPRLPRPRPRPGEGPRP: the “shrunken log2 fold change” value was -0.036.
Take RRIRMRPPRLPRPRPRPCYSPRP: the “shrunken log2 fold change” value is -0.711.
Turning to RRIRLRPPRLPRPRPRPYFNPRP, the “shrunken log2 fold change” value was -1.13.
As for RRIRSRPPRLPRPRPRPKDDPRP, the “shrunken log2 fold change” value is 0.0557.
For RRIRLRPPRLPRPRPRPAVSPRP the value was -0.0934; for RRIRIRPPRLPRPRPRPGIFPRP, -0.5; for RRIRVRPPRLPRPRPRPSIPPRP, -0.52.
For RRIRKRPPRLPRPRPRPYDNPRP, the “shrunken log2 fold change” value turned out to be 0.0185.
For the sequence RRIRHRPPRLPRPRPRPRFSPRP, the “shrunken log2 fold change” value is -0.137.
As for RRIRTRPPRLPRPRPRPHWYPRP, the “shrunken log2 fold change” value is -0.135.
Under RRIRHRPPRLPRPRPRPEFTPRP stands -0.0939; under RRIRWRPPRLPRPRPRPLVQPRP, 0.23.
As for RRIRLRPPRLPRPRPRPWMAPRP, the “shrunken log2 fold change” value was -0.346.
For RRIRIRPPRLPRPRPRPMDDPRP, the “shrunken log2 fold change” value came out at 0.0135.
In the case of RRIRLRPPRLPRPRPRPWGGPRP, the “shrunken log2 fold change” value came out at 1.94.
As for RRIRSRPPRLPRPRPRPNRTPRP, the “shrunken log2 fold change” value is -0.0602.
Turning to RRIRTRPPRLPRPRPRPNPMPRP, the “shrunken log2 fold change” value was -0.383.
For RRIRHRPPRLPRPRPRPCDTPRP the value was -0.214; for RRIRDRPPRLPRPRPRPVHNPRP, -0.585; for RRIRARPPRLPRPRPRPKMSPRP, 0.126.
With RRIRNRPPRLPRPRPRPKYGPRP, the “shrunken log2 fold change” value was -0.174.
With RRIRRRPPRLPRPRPRPDPDPRP, the “shrunken log2 fold change” value is -0.0342.
As to RRIRTRPPRLPRPRPRPMMGPRP, the “shrunken log2 fold change” value is -0.1.
For RRIRKRPPRLPRPRPRPLAFPRP the value was 0.278; for RRIRIRPPRLPRPRPRPTHLPRP, -0.0268; for RRIRTRPPRLPRPRPRPFPSPRP, 0.0745.
Consider RRIRTRPPRLPRPRPRPWLWPRP, for which the “shrunken log2 fold change” value was found to be 0.202.
For RRIRARPPRLPRPRPRPHEDPRP the value was 0.627.
As to RRIRLRPPRLPRPRPRPARSPRP, the “shrunken log2 fold change” value was 0.343.
For RRIRPRPPRLPRPRPRPFAKPRP the value was 0.0716; for RRIRSRPPRLPRPRPRPAFHPRP, -0.0038; for RRIRFRPPRLPRPRPRPGWSPRP, 0.114.
For RRIRKRPPRLPRPRPRPCRAPRP the value was 0.57; for RRIRHRPPRLPRPRPRPASQPRP, 0.045; for RRIRIRPPRLPRPRPRPIGTPRP, -0.792.
For the sequence RRIRSRPPRLPRPRPRPKMNPRP, the “shrunken log2 fold change” value is -0.163.
For the sequence RRIRGRPPRLPRPRPRPMAFPRP, the “shrunken log2 fold change” value was determined as 0.572.
In the case of RRIRERPPRLPRPRPRPSTYPRP, the “shrunken log2 fold change” value is -0.263.
Regarding RRIRDRPPRLPRPRPRPRWKPRP, the “shrunken log2 fold change” value came out at 0.0064.
Regarding RRIRNRPPRLPRPRPRPQTMPRP, the “shrunken log2 fold change” value is -0.238.
Under RRIRPRPPRLPRPRPRPMPDPRP stands 0.163; under RRIRFRPPRLPRPRPRPSCCPRP, -0.443.
Consider RRIRTRPPRLPRPRPRPGCKPRP, for which the “shrunken log2 fold change” value was -0.161.
As for RRIRTRPPRLPRPRPRPVSGPRP, the “shrunken log2 fold change” value was -0.0612.
For the sequence RRIRWRPPRLPRPRPRPTNYPRP, the “shrunken log2 fold change” value was -0.347.
Under RRIRVRPPRLPRPRPRPAWVPRP stands 0.459.
Regarding RRIRERPPRLPRPRPRPQKVPRP, the “shrunken log2 fold change” value is -0.102.
For RRIRSRPPRLPRPRPRPDYEPRP the value was -0.221; for RRIRERPPRLPRPRPRPSGNPRP, -0.636.
With RRIRNRPPRLPRPRPRPCWHPRP, the “shrunken log2 fold change” value was -0.0656.
As for RRIRPRPPRLPRPRPRPSRDPRP, the “shrunken log2 fold change” value was -0.109.
As to RRIRERPPRLPRPRPRPCPYPRP, the “shrunken log2 fold change” value was -0.367.
For RRIRVRPPRLPRPRPRPDCPPRP, the “shrunken log2 fold change” value is -0.104.
Consider RRIRDRPPRLPRPRPRPRTIPRP, for which the “shrunken log2 fold change” value was -0.018.
Turning to RRIRFRPPRLPRPRPRPPYEPRP, the “shrunken log2 fold change” value is -0.202.
For RRIRARPPRLPRPRPRPPAIPRP the value was 0.382; for RRIRRRPPRLPRPRPRPHRGPRP, -0.0548.
In the case of RRIRHRPPRLPRPRPRPYPTPRP, the “shrunken log2 fold change” value was -0.219.
In the case of RRIRFRPPRLPRPRPRPALRPRP, the “shrunken log2 fold change” value was 0.276.
Under RRIRYRPPRLPRPRPRPCLEPRP stands 0.139.
Consider RRIRTRPPRLPRPRPRPHCGPRP, for which the “shrunken log2 fold change” value was -0.0402.
Under RRIRWRPPRLPRPRPRPTWFPRP stands -0.0378.
RRIRSRPPRLPRPRPRPTHNPRP: the “shrunken log2 fold change” value is -0.133.
As to RRIRCRPPRLPRPRPRPMMEPRP, the “shrunken log2 fold change” value was -0.105.
Take RRIRARPPRLPRPRPRPLVPPRP: the “shrunken log2 fold change” value stood at 0.125.
Under RRIRTRPPRLPRPRPRPCNNPRP stands -0.276.
For the sequence RRIRMRPPRLPRPRPRPMNTPRP, the “shrunken log2 fold change” value stood at 0.206.
As to RRIRERPPRLPRPRPRPHMAPRP, the “shrunken log2 fold change” value was -0.0803.
For RRIRNRPPRLPRPRPRPESKPRP, the “shrunken log2 fold change” value is -0.0938.
As for RRIRMRPPRLPRPRPRPNSQPRP, the “shrunken log2 fold change” value is -0.075.
With RRIRDRPPRLPRPRPRPGLKPRP, the “shrunken log2 fold change” value was -0.0696.
As for RRIRQRPPRLPRPRPRPGSLPRP, the “shrunken log2 fold change” value came out at 0.143.
Under RRIRYRPPRLPRPRPRPFSAPRP stands -1.07; under RRIRGRPPRLPRPRPRPDNIPRP, 0.119.
As to RRIRPRPPRLPRPRPRPDRTPRP, the “shrunken log2 fold change” value was -0.25.
Turning to RRIRTRPPRLPRPRPRPQCQPRP, the “shrunken log2 fold change” value was -0.0883.
As for RRIRHRPPRLPRPRPRPPWEPRP, the “shrunken log2 fold change” value is 0.193.
For RRIRRRPPRLPRPRPRPQCNPRP, the “shrunken log2 fold change” value amounted to 0.0615.
RRIRSRPPRLPRPRPRPAAWPRP: the “shrunken log2 fold change” value worked out at 0.226.
On to RRIRFRPPRLPRPRPRPASSPRP, for which the “shrunken log2 fold change” value is -0.204.
In the case of RRIRNRPPRLPRPRPRPLVEPRP, the “shrunken log2 fold change” value is -0.187.
Under RRIRIRPPRLPRPRPRPEKRPRP stands -0.0249; under RRIRIRPPRLPRPRPRPAFTPRP, 0.106; under RRIRVRPPRLPRPRPRPYRYPRP, -0.228.
For the sequence RRIRRRPPRLPRPRPRPSSCPRP, the “shrunken log2 fold change” value turned out to be 0.055.
In the case of RRIRSRPPRLPRPRPRPTSIPRP, the “shrunken log2 fold change” value is -0.102.
With RRIRSRPPRLPRPRPRPTECPRP, the “shrunken log2 fold change” value is -0.00271.
As for RRIRNRPPRLPRPRPRPSLPPRP, the “shrunken log2 fold change” value was -0.378.
Take RRIRYRPPRLPRPRPRPYNIPRP: the “shrunken log2 fold change” value was -0.426.
Under RRIRMRPPRLPRPRPRPFQDPRP stands -0.235; under RRIRGRPPRLPRPRPRPYGHPRP, 0.323; under RRIRRRPPRLPRPRPRPAERPRP, 0.606.
Under RRIRDRPPRLPRPRPRPVEEPRP stands 0.525; under RRIRERPPRLPRPRPRPSWFPRP, -0.589.
